# From US20220380463A1 (Adimab, published 2022)
# Changes are numbered by the printed parent chain.
# T1: Cynomolgus CD3εδ Fc heterodimer (Cy CD3ε Fc / CD3δ Fc-HIS) (cynomolgus, UniProt Q95LI8 22-100)
# T1 chain 1: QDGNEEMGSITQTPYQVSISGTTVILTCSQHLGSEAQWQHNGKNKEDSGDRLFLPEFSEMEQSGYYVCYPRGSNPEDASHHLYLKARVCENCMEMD
# T1 chain 2: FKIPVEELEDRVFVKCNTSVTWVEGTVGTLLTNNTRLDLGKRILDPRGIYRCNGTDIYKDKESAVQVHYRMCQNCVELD
# B1: SAD10319_P05_B02 (ADI-57399) (antibody, V domains shown)
# VH: QVQLVQSGAEVKKPGASVKVSCKASGYTFTSYNMHWVRQAPGPSLEWMGSIDAGTGATDYSQKFQGRVTITRDTSASTAYMELSSLRSEDTAVYYCARDAYHHYFYDVWGQGTLVTVSS
# VL: DIVMTQSPDSLAVSLGERATINCKSSQSLLNARTGKNYLAWYQQKPGQPPKLLIYWASTRESGVPDRFSGSGSGTDFTLTISSLQAEDVAVYYCKQSYSRRTFGGGTKVEIK
# notes: IgG; also called Ab126
# B2: SAD10319_P06_A11 (ADI-57420) (antibody, V domains shown)
# VH: QVQLVQSGAEVKKPGASVKVSCKASGYTFDSIAMHWVRQAPGQRLEWMGWINPATGNTDYSQKFQGRVTITRDTSASTAYMELSSLRSEDTAVYYCARDAYGHYFYDHWGQGTLVTVSS
# VL: B1 VL
# notes: IgG; also called Ab149
# B3: SAD10319_P06_D12 (ADI-57425) (antibody, V domains shown)
# VH: B1 VH with T30N, S31R, N33V, P43Q, S44R, S50G, D59K, Y101H, H102R
# VL: B1 VL
# B4: SAD10319_P05_B03 (ADI-57400) (antibody, V domains shown)
# VH: B2 VH with D30E, I32Y, A33V, N52H, P53S, A54G
# VL: B1 VL
# notes: IgG; also called Ab127
# B5: SAD10319_P05_D05 (ADI-57410) (antibody, V domains shown)
# VH: B1 VH with T30A, S31D, N33A, P43H, S44R, S50D, D52I, D59K, A100H, H102G
# VL: B1 VL
# notes: IgG; also called Ab138
# B6: SAD10320_P04_D12 (ADI-57392) (antibody, V domains shown)
# VH: QVQLVQSGAEVKKPGASVKVSCKASGFNIKDYYMHWVRQAPGQRLEWMGWIDLENANTIYDAKFQGRVTITRDTSASTAYMELSSLRSEDTAVYYCARDAYGHDFYDVWGQGTLVTVSS
# VL: B1 VL with R100H
# notes: IgG; also called Ab118
# B7: SAD10319_P05_C05 (ADI-57405) (antibody, V domains shown)
# VH: B1 VH with S44R, S50W, D59H
# VL: B1 VL
# notes: IgG; also called Ab132
# B8: SAD10319_P05_G03 (ADI-57415) (antibody, V domains shown)
# VH: B2 VH with D30H, I32Y, A33N, Q43H, A54D, N57A, H103R, H108V
# VL: B1 VL
# notes: IgG; also called Ab143
# B9: SAD10320_P04_F12 (ADI-57394) (antibody, V domains shown)
# VH: B6 VH with W47R, D104E
# VL: B1 VL
# notes: IgG; also called Ab120
# B10: SAD10319_P05_G01 (ADI-57413) (antibody, V domains shown)
# VH: B1 VH with T30N, S31N, N33A, P43Q, S50W, A57N, Y101H, H103R
# VL: B1 VL
# B11: SAD10319_P05_B05 (ADI-57402) (antibody, V domains shown)
# VH: B2 VH with D30V, S31D, I32Y, N52D, P53A, A54G, Y101H, H108V
# VL: B1 VL
# notes: IgG; also called Ab129
# B12: SAD10319_P06_B10 (ADI-57421) (antibody, V domains shown)
# VH: B1 VH with S31E, N33V, P43Q, S44R, S50D, D59K
# VL: B1 VL
# notes: IgG; also called Ab150
# B13: SAD10319_P06_C10 (ADI-57423) (antibody, V domains shown)
# VH: B1 VH with S31E, N33V, S44R, S50D, D59K
# VL: B1 VL
# notes: IgG; also called Ab152
# B14: SAD10320_P04_A12 (ADI-57391) (antibody, V domains shown)
# VH: B6 VH with D104V
# VL: B1 VL with S99H, R100H
# notes: IgG; also called Ab117
# B15: SAD10319_P05_C01 (ADI-57403) (antibody, V domains shown)
# VH: B2 VH with D30T, S31D, I32D, N52D, P53A, A54G, D59Y, R98H, H108V
# VL: B1 VL
# notes: IgG; also called Ab130
# B16: SAD10319_P06_E09 (ADI-57427) (antibody, V domains shown)
# VH: B2 VH with D30T, S31A, I32Y, A33D, A54D, N57A, D59V, H103R, H108V
# VL: B1 VL
# notes: IgG; also called Ab156
# B17: SAD10319_P05_B04 (ADI-57401) (antibody, V domains shown)
# VH: B1 VH with Y32A, N33V, P43Q, S44R, S50D, D52N, H102G, H103R
# VL: B1 VL
# notes: IgG; also called Ab128
# B18: SAD10320_P04_E12 (ADI-57393) (antibody, V domains shown)
# VH: B6 VH with D104T
# VL: B1 VL with S99H, R100V
# notes: IgG; also called Ab119
# B19: SAD10319_P05_A03 (ADI-57397) (antibody, V domains shown)
# VH: B2 VH with D30N, S31D, I32Y, N52D, P53A, A54G, D59Y, Y101H, H108V
# VL: B1 VL
# notes: IgG; also called Ab123
# B20: SAD10319_P05_H06 (ADI-57417) (antibody, V domains shown)
# VH: B1 VH with S31E, N33D, S44T, S50W, D59V, H102G, H103R, V108H
# VL: B1 VL
# notes: IgG; also called Ab145
# B21: SAD10320_P04_D11 (ADI-57387) (antibody, V domains shown)
# VH: B6 VH with E46Q, D104V
# VL: B1 VL with S99H, R100H
# notes: IgG; also called Ab110
# B22: SAD10319_P06_E08 (ADI-57426) (antibody, V domains shown)
# VH: B1 VH with T30I, S31K, N33V, P43Q, S44R, S50D, A53P, G54D, D59E, A100D
# VL: B1 VL
# notes: IgG; also called Ab155
# Target: T1, Cynomolgus CD3εδ Fc heterodimer (Cy …)
# Assay: BLI (Octet), IgG on AHC sensor, pH 6.0
row,koff [s⁻¹],Binder
1,0.00411,B1
2,0.00279,B2
3,0.0192,B3
4,0.0346,B4
5,0.0158,B5
6,0.00259,B6
7,0.00821,B7
8,0.0167,B8
9,0.00259,B9
10,0.0236,B10
11,0.00654,B11
12,0.002,B12
13,0.00318,B13
14,0.0168,B14
15,0.013,B15
16,0.0122,B16
17,0.00258,B17
18,0.0108,B18
19,0.0127,B19
20,0.0104,B20
21,0.00338,B21
22,0.0105,B22
